Source: patent US20180155712, “COMPOSITIONS AND METHODS FOR IDENTIFYING POLYNUCLEOTIDES OF INTEREST” (The Regents of the University of California, published 2018)

Target: T7 RNA polymerase (Bacteriophage T7, UniProt P00573 P00573:1-883)
Test: functional promoter recovered as cDNA by in vitro transcription and deep sequencing; relative strength not given
Procedure: Transcription with T7 RNA polymerase, phenol/chloroform/iso-amyl alcohol extraction, ethanol precipitation, and reverse transcription were performed as described for Examples 1 and 2, above. PCR was done of the resulting cDNA with primers that added appropriate indexed sequences for Illumina deep sequencing, as described above and herein. PCR was also done directly on the library plasmid, again adding the appropriate sequences for Illumina deep sequencing, but with a different index. The appropriately sized PCR products from the cDNA and from the plasmid library were gel purified. An equal mass amount of the two products were mixed and submitted for Illumina MiSeq deep sequencing. Approximately 5 million sequences were generated for each of the cDNA and plasmid library after separation based on the primer indices. For both cDNA and library PCR products, non-promoter sequences were trimmed, promoter sequences were separated based on the number of mutations present in each sequence, and the number of times any given sequence was present was determined. […] See, SEQ ID NOs: 10-73473 listed in the text-formatted computer readable sequence listing filed herewith, and incorporated herein by reference. […]

T7 RNA polymerase, sequence (P00573 whole entry, one chain of several): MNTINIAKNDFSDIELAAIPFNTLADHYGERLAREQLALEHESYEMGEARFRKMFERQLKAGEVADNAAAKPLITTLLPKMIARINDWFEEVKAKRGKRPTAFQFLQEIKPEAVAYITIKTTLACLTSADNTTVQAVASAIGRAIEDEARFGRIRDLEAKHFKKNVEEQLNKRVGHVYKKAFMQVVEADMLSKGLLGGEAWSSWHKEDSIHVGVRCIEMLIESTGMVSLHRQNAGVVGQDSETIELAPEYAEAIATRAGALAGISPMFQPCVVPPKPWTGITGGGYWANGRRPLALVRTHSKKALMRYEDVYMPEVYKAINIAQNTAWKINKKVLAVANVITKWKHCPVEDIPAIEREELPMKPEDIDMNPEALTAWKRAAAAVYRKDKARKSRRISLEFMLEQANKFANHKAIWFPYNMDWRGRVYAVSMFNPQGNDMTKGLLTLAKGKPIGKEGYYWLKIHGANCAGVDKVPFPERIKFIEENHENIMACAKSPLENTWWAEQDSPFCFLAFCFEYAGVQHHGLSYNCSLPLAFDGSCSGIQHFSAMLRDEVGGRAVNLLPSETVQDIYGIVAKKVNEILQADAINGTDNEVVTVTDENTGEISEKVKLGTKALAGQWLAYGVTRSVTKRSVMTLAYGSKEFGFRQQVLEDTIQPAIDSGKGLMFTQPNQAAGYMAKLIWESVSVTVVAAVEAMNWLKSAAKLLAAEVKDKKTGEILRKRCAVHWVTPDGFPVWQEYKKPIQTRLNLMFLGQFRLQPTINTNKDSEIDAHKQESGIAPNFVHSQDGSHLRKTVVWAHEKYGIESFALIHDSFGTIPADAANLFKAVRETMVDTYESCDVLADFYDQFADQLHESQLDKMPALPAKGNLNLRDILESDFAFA

B1: mutant T7 promoter SEQ ID NO: 10 (dsDNA)
DNA 1: TAATACGACTCGCTATCG
DNA 2: CGATAGCGAGTCGTATTA
B1: binds.
